Source: patent US20250340902A1, “GENE THERAPY FOR BVES-RELATED DISORDERS” (OHIO STATE INNOVATION FOUNDATION, priority 2022, published 2025)

Key:
Assay in all cases: anti-HA co-IP from muscle, MS; CTRL 0
[1] = target: 26S proteasome non-ATPase regulatory subunit 7 (Mus musculus) (UniProt P26516)
[2] = target: ATP-binding cassette sub-family F member 1 (Mus musculus) (UniProt Q6P542)
[3] = target: Acetyl-CoA acetyltransferase, mitochondrial (Mus musculus) (UniProt Q8QZT1)
[4] = target: Alanine--tRNA ligase, cytoplasmic (Mus musculus) (UniProt Q8BGQ7)
Ankyrin-1 (Mus musculus) = Ankyrin-1 (Mus musculus) (UniProt Q02357)
Ankyrin-3 (Mus musculus) = Ankyrin-3 (Mus musculus) (UniProt G5E8K5)
Sequence of Ankyrin-3 (Mus musculus) (G5E8K5 whole entry): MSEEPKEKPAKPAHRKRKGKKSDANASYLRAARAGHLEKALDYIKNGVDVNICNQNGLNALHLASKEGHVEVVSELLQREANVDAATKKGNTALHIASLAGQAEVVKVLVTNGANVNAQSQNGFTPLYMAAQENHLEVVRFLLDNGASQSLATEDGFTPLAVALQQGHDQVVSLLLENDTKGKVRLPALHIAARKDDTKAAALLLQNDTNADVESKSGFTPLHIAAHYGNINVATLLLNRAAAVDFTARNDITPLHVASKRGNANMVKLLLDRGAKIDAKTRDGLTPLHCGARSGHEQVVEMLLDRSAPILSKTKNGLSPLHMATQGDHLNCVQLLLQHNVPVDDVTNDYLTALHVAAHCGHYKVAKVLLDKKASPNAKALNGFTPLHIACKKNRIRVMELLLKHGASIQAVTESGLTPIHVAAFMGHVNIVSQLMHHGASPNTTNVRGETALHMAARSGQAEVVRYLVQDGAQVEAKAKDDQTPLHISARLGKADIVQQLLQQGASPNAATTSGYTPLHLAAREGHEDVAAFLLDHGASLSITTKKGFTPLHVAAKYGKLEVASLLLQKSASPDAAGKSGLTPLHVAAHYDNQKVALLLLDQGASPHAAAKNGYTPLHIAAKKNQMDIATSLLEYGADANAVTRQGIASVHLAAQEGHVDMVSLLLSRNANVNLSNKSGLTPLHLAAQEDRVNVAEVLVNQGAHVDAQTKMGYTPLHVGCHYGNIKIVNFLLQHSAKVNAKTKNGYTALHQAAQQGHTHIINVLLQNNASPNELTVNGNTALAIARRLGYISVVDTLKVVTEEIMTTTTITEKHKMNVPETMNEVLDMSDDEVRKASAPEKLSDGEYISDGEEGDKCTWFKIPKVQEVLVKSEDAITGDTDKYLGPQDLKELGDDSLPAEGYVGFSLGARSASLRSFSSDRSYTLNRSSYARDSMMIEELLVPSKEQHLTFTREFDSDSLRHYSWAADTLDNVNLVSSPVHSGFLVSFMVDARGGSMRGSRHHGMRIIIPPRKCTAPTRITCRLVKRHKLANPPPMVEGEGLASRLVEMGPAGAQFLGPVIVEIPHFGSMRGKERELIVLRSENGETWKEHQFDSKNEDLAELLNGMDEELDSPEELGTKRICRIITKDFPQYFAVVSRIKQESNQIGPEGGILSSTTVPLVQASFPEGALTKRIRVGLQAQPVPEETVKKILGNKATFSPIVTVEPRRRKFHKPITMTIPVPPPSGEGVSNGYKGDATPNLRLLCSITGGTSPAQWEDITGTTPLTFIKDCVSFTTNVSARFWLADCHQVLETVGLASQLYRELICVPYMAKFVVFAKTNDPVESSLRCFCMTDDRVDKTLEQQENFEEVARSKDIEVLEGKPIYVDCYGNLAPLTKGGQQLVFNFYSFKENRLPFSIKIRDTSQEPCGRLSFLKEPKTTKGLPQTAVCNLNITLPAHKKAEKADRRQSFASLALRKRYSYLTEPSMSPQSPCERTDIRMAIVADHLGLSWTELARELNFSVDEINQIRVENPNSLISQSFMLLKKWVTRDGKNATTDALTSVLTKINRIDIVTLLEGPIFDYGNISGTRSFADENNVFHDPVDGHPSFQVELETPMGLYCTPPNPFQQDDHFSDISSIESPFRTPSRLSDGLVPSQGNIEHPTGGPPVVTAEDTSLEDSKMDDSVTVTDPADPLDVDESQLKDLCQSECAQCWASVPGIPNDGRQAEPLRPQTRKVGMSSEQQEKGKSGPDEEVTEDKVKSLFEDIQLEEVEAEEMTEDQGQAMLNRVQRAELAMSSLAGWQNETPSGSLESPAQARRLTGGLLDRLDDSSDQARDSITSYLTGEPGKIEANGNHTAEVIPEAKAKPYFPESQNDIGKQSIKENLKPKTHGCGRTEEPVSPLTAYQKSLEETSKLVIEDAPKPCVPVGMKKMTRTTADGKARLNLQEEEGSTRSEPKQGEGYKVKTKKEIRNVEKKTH

[5] = target: Anoctamin-5 (Mus musculus) (UniProt Q75UR0)
[6] = target: Beta-sarcoglycan (Mus musculus) (UniProt P82349)
Sequence of Beta-sarcoglycan (Mus musculus) (P82349 whole entry): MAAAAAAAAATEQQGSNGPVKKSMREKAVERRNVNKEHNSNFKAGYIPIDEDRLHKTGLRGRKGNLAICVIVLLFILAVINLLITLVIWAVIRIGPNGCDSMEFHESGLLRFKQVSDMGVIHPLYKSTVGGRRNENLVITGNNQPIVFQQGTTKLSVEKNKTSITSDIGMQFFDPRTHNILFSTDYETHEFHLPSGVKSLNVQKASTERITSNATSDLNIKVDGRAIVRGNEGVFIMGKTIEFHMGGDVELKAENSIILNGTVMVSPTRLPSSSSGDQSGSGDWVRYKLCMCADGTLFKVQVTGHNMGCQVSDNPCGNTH

[7] = target: Bifunctional purine biosynthesis protein ATIC (Mus musculus) (UniProt Q9CWJ9)
Sequence of Bifunctional purine biosynthesis protein ATIC (Mus musculus) (Q9CWJ9 whole entry, the tested form may be a part): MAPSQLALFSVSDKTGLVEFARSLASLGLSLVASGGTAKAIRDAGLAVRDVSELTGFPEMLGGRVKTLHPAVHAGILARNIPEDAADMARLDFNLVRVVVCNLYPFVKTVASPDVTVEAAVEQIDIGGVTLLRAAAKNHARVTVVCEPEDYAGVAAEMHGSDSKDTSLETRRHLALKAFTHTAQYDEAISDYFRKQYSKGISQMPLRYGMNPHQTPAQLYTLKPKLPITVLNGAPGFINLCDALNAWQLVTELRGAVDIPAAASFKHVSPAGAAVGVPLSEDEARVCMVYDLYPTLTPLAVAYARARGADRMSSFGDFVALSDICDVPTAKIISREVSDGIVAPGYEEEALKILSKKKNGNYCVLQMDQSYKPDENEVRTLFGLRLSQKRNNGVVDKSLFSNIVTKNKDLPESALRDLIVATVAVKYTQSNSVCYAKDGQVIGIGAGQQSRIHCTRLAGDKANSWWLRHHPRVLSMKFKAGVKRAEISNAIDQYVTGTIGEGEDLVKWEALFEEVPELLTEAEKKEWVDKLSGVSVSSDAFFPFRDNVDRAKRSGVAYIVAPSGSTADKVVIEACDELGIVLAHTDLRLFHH

[8] = target: C-type lectin domain family 3 member A (Mus musculus) (UniProt Q9EPW4)
Sequence of C-type lectin domain family 3 member A (Mus musculus) (Q9EPW4 23-196 limits assumed): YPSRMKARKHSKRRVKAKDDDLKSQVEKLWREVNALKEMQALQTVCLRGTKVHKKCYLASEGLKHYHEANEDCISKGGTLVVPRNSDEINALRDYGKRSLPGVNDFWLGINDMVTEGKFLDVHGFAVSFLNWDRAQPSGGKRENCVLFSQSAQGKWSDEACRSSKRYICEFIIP

[9] = target: Carboxypeptidase N catalytic chain (Mus musculus) (UniProt Q9JJN5)
Sequence of Carboxypeptidase N catalytic chain (Mus musculus) (Q9JJN5 24-457 limits assumed): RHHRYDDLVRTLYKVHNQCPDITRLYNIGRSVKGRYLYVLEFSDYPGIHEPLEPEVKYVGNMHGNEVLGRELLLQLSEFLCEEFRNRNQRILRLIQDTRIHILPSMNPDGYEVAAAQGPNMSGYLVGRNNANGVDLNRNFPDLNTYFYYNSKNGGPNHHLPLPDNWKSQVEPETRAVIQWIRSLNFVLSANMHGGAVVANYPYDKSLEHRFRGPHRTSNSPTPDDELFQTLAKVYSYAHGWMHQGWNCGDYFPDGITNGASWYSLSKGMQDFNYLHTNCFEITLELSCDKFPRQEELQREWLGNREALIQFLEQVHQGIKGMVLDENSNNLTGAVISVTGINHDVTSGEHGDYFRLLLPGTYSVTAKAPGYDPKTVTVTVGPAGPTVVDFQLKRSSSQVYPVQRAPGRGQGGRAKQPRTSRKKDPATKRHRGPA

[10] = target: Cell cycle progression protein 1 (Mus musculus) (UniProt Q640L3)
[11] = target: Coatomer subunit delta (Mus musculus) (UniProt Q5XJY5)
[12] = target: DnaJ homolog subfamily B member 12 (Mus musculus) (UniProt Q9QYI4)
[13] = target: DnaJ homolog subfamily B member 2 (Mus musculus) (UniProt Q9QYI5)
[14] = target: Dystrobrevin alpha (Mus musculus) (UniProt Q9D2N4)
Emerin (Mus musculus) = Emerin (Mus musculus) (UniProt O08579)
[15] = target: Ferrochelatase, mitochondrial (Mus musculus) (UniProt P22315)
Sequence of Ferrochelatase, mitochondrial (Mus musculus) (P22315 54-422 limits assumed): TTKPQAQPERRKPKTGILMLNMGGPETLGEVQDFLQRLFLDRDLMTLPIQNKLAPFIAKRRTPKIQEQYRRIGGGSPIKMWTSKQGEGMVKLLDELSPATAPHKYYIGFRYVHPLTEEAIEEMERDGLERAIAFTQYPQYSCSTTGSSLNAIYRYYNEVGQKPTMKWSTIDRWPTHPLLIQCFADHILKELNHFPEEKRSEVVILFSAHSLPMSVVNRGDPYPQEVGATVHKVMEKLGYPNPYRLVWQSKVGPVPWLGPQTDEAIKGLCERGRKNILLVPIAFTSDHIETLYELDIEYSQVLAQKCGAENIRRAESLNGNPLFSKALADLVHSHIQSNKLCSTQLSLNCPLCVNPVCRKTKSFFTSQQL

[16] = target: GTP-binding protein SAR1b (Mus musculus) (UniProt Q9CQC9)
[17] = target: Glutamine amidotransferase-like class 1 domain-containing protein 3A, mitochondrial (Mus musculus) (UniProt Q9D172)
[18] = target: Glypican-4 (Mus musculus) (UniProt P51655)
[19] = target: Heterogeneous nuclear ribonucleoprotein L (Mus musculus) (UniProt Q8R081)
[20] = target: Heterogeneous nuclear ribonucleoprotein M (Mus musculus) (UniProt Q9D0E1)
[21] = target: Keratin, type II cytoskeletal 7 (Mus musculus) (UniProt Q9DCV7)
[22] = target: LEM domain-containing protein 2 (Mus musculus) (UniProt Q6DVA0)
[23] = target: MAP7 domain-containing protein 1 (Mus musculus) (UniProt A2AJI0)
[24] = target: Multidrug resistance-associated protein 1 (Mus musculus) (UniProt O35379)
[25] = target: Phosphofurin acidic cluster sorting protein 1 (Mus musculus) (UniProt Q8K212)
[26] = target: Popeye domain-containing protein 3 (Mus musculus) (UniProt Q9ES81)
Sequence of Popeye domain-containing protein 3 (Mus musculus) (Q9ES81 whole entry, the tested form may be a part): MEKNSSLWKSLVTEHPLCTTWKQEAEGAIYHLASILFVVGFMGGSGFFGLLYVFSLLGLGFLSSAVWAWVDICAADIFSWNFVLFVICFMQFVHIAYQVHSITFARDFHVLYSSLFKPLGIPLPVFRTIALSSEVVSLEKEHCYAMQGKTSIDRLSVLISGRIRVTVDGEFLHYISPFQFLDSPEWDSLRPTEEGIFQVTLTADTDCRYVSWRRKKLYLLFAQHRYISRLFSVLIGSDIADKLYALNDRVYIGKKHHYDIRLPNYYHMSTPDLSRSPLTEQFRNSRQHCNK

[27] = target: Probable ubiquitin carboxyl-terminal hydrolase FAF-X (Mus musculus) (UniProt P70398)
[28] = target: Proliferation-associated protein 2G4 (Mus musculus) (UniProt P50580)
[29] = target: Protein phosphatase 1 regulatory subunit 3A (Mus musculus) (UniProt Q99MR9)
[30] = target: RNA methyltransferase 10 homolog C (Mus musculus) (UniProt Q3UFY8)
[31] = target: Ribosomal protein S6 kinase alpha-2 (Mus musculus) (UniProt Q9WUT3)
Sequence of Ribosomal protein S6 kinase alpha-2 (Mus musculus) (Q9WUT3 whole entry): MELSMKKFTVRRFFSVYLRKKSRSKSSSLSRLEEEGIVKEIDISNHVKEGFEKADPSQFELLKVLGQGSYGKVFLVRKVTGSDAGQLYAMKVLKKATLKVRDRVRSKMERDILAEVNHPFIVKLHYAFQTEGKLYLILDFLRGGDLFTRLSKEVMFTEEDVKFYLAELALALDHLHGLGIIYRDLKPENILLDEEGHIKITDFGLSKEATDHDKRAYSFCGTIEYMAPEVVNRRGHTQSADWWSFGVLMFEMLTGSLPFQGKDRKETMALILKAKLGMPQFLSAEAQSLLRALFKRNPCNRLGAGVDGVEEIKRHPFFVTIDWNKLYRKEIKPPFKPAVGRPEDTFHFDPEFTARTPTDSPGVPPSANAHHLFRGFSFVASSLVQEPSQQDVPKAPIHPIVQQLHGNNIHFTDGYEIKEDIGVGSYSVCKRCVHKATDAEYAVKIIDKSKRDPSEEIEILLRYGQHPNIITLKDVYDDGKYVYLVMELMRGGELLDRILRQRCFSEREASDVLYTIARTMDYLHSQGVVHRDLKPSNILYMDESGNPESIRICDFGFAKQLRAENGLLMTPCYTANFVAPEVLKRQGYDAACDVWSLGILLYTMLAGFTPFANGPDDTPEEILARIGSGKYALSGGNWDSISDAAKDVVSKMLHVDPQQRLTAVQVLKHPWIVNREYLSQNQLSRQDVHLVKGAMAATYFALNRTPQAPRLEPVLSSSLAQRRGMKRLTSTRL

[32] = target: Sodium/calcium exchanger 3 (Mus musculus) (UniProt S4R2P9)
[33] = target: Solute carrier family 12 member 1 (Mus musculus) (UniProt P55014)
[34] = target: Solute carrier family 12 member 2 (Mus musculus) (UniProt P55012)
[35] = target: Sulfide:quinone oxidoreductase, mitochondrial (Mus musculus) (UniProt Q9R112)
[36] = target: Vitamin K-dependent protein C (Mus musculus) (UniProt P33587)

**Q.** Which AAV9-BVES-HA (IP-MS count) [1] does the source give for “human BVES fused with 3xHA tag (from UniProt Q8NE79 1-360)” here?
**A.** 2

**Q.** What about the AAV9-BVES-HA (IP-MS count) [2] of the same substance?
**A.** 4

**Q.** What about the AAV9-BVES-HA (IP-MS count) [3] of the same substance?
**A.** 5

**Q.** What about the AAV9-BVES-HA (IP-MS count) [4] of the same substance?
**A.** 4

**Q.** And the AAV9-BVES-HA (IP-MS count) (Ankyrin-1 (Mus musculus))?
**A.** 31

**Q.** And the AAV9-BVES-HA (IP-MS count) (Ankyrin-3 (Mus musculus))?
**A.** 242

**Q.** What about the AAV9-BVES-HA (IP-MS count) [5] of the same substance?
**A.** 2

**Q.** And the AAV9-BVES-HA (IP-MS count) [6]?
**A.** 9

**Q.** What about the AAV9-BVES-HA (IP-MS count) [7] of the same substance?
**A.** 3

**Q.** What about the AAV9-BVES-HA (IP-MS count) [8] of the same substance?
**A.** 6

**Q.** And the AAV9-BVES-HA (IP-MS count) [9]?
**A.** 4

**Q.** What about the AAV9-BVES-HA (IP-MS count) [10] of the same substance?
**A.** 2

**Q.** And the AAV9-BVES-HA (IP-MS count) [11]?
**A.** 2

**Q.** And the AAV9-BVES-HA (IP-MS count) [12]?
**A.** 2

**Q.** And the AAV9-BVES-HA (IP-MS count) [13]?
**A.** 2

**Q.** What about the AAV9-BVES-HA (IP-MS count) [14] of the same substance?
**A.** 4

**Q.** What about the AAV9-BVES-HA (IP-MS count) (Emerin (Mus musculus)) of the same substance?
**A.** 6

**Q.** And the AAV9-BVES-HA (IP-MS count) [15]?
**A.** 2

**Q.** What about the AAV9-BVES-HA (IP-MS count) [16] of the same substance?
**A.** 3

**Q.** What about the AAV9-BVES-HA (IP-MS count) [17] of the same substance?
**A.** 4

**Q.** And the AAV9-BVES-HA (IP-MS count) [18]?
**A.** 11

**Q.** What about the AAV9-BVES-HA (IP-MS count) [19] of the same substance?
**A.** 2

**Q.** What about the AAV9-BVES-HA (IP-MS count) [20] of the same substance?
**A.** 2

**Q.** What about the AAV9-BVES-HA (IP-MS count) [21] of the same substance?
**A.** 17

**Q.** What about the AAV9-BVES-HA (IP-MS count) [22] of the same substance?
**A.** 2

**Q.** And the AAV9-BVES-HA (IP-MS count) [23]?
**A.** 2

**Q.** And the AAV9-BVES-HA (IP-MS count) [24]?
**A.** 2

**Q.** What about the AAV9-BVES-HA (IP-MS count) [25] of the same substance?
**A.** 2

**Q.** What about the AAV9-BVES-HA (IP-MS count) [26] of the same substance?
**A.** 5

**Q.** And the AAV9-BVES-HA (IP-MS count) [27]?
**A.** 3

**Q.** What about the AAV9-BVES-HA (IP-MS count) [28] of the same substance?
**A.** 7

**Q.** What about the AAV9-BVES-HA (IP-MS count) [29] of the same substance?
**A.** 12

**Q.** And the AAV9-BVES-HA (IP-MS count) [30]?
**A.** 2

**Q.** And the AAV9-BVES-HA (IP-MS count) [31]?
**A.** 12

**Q.** And the AAV9-BVES-HA (IP-MS count) [32]?
**A.** 3

**Q.** And the AAV9-BVES-HA (IP-MS count) [33]?
**A.** 2

**Q.** What about the AAV9-BVES-HA (IP-MS count) [34] of the same substance?
**A.** 3

**Q.** And the AAV9-BVES-HA (IP-MS count) [35]?
**A.** 3

**Q.** And the AAV9-BVES-HA (IP-MS count) [36]?
**A.** 2
